# According to patent US20110158992A1 (SCHERING, published 2011):
# Residue numbers refer to the chain shown, from its start. Numbers in names are those of the source.
# T1: human IL-23R (human, UniProt Q5VWK5 24-353, limits assumed)
# T1 construct: also called huIL-23R; human interleukin-23R
# T1 sequence: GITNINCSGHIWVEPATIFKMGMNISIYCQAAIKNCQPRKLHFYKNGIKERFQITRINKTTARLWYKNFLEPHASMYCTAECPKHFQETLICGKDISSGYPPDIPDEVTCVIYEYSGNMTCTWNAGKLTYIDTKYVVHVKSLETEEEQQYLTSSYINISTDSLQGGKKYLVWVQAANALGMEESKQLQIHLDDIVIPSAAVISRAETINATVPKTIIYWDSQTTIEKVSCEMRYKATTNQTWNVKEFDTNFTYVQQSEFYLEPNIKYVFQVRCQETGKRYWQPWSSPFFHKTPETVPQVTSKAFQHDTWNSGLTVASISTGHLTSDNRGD
# T2: biotinylated huIL-23R-IgG (human, UniProt Q5VWK5 24-353, biotinylated)
# T2 construct: not shown: human IgG1 Fc
# T2 sequence: T1 sequence
# B1: humanized anti-human IL-23R antibody hu8B10-b (antibody, V domains shown)
# VH: QVQLVESGGGVVQPGRSLRLSCAASGFDFNSYGMSWVRQAPGKGLDLVADINSKSYNYATYYADSVKDRFTISRDNSKNTLYLQMNSLRAEDTAVYYCAVHHSDYFEYWGQGTLVTVSS
# VL: DIQMTQSPSSLSASVGDRVTITCRASQDIYTNLAWYQQKPGKAPKLLIYHASSLQDGVPSRFSGSGSGTDYTLTISSLQPEDFATYYCLQDSEYPPTFGQGTKVEIKR
# B2: antibody with hu8B10 VH and hu8B10 VL N31T (antibody, V domains shown)
# VH: B1 VH with D46E, L47W, V100R
# VL: B1 VL with R24L, Q27E, Y71F
# notes: also called VH: hu8B10 / VL: hu8B10 N31T
# B3: antibody with hu8B10-b VH and hu8B10 VL N31T (antibody, V domains shown)
# VH: B1 VH
# VL: B1 VL with R24L, Q27E, Y71F
# notes: also called VH: hu8B10-b / VL: hu8B10 N31T
# B4: hu8B10-b variant, VH N30D (antibody, V domains shown)
# VH: B1 VH with N30D
# VL: B1 VL
# notes: also called VH: 8B10-b N30D / VL: 8B10-b
# B5: hu8B10-b variant, VH N30S (antibody, V domains shown)
# VH: B1 VH with N30S
# VL: B1 VL
# notes: also called VH: 8B10-b N30S / VL: 8B10-b
# B6: hu8B10-b variant, VH N52D (antibody, V domains shown)
# VH: B1 VH with N52D
# VL: B1 VL
# notes: also called VH: 8B10-b N52D / VL: 8B10-b
# B7: hu8B10-b variant, VH N52S (antibody, V domains shown)
# VH: B1 VH with N52S
# VL: B1 VL
# notes: also called VH: 8B10-b N52S / VL: 8B10-b
# B8: hu8B10-b variant, VH N57D (antibody, V domains shown)
# VH: B1 VH with N57D
# VL: B1 VL
# notes: also called VH: 8B10-b N57D / VL: 8B10-b
# B9: hu8B10-b variant, VH N57S (antibody, V domains shown)
# VH: B1 VH with N57S
# VL: B1 VL
# notes: also called VH: 8B10-b N57S / VL: 8B10-b
# B10: hu8B10-b variant, VL D56E (antibody, V domains shown)
# VH: B1 VH
# VL: B1 VL with D56E
# notes: also called VH: 8B10-b / VL: 8B10-b D56E
# B11: hu8B10-b variant, VL D56S (antibody, V domains shown)
# VH: B1 VH
# VL: B1 VL with D56S
# notes: also called VH: 8B10-b / VL: 8B10-b D56S
# B12: hu8B10-b variant, VL N32S (antibody, V domains shown)
# VH: B1 VH
# VL: B1 VL with N32S
# notes: also called VH: 8B10-b / VL: 8B10-b N32S
# B13: humanized anti-human IL-23R antibody hu8B10-c (antibody, V domains shown)
# VH: B1 VH with N30S
# VL: B1 VL with D56S
# notes: 8B10-b with VL D56S and VH N30S
# B14: chimeric 8B10 Fab, VH Y32A (Fab, V domains shown)
# VH: EVKLVESGGGLEQPKGSLKLSCTVSGFDFNSAGMSWVRQAPGKGLDLVADINSKSYNYATYYADSVKDRFTISRDDSQSMVYLEMDNLKTEDTALYYCTVHHSDYFEYWGQGVMVTVSS
# VL: DIQMTQSPASLSASLGETVSIECLASEDIYNNLAWYQQKPGKSPQLLIYHASSLQDGVPSRFSGSGSGTQYSLKINSLESEDAATYFCLQDSEYPPTFGGGTKLELKR
# notes: Rat V domains with human CH1 and CL; E. coli periplasmic extract
# B15: chimeric 8B10 Fab, VH Y58G (Fab, V domains shown)
# VH: B14 VH with A32Y, Y58G
# VL: B14 VL
# notes: as for B14
# B16: chimeric 8B10 Fab, VH Y61A (Fab, V domains shown)
# VH: B14 VH with A32Y, Y61A
# VL: B14 VL
# notes: as for B14
# B17: chimeric 8B10 Fab, VH Y105A (Fab, V domains shown)
# VH: B14 VH with A32Y, Y105A
# VL: B14 VL
# notes: as for B14
# B18: chimeric 8B10 Fab, VL D28A (Fab, V domains shown)
# VH: B14 VH with A32Y
# VL: B14 VL with D28A
# notes: as for B14
# B19: chimeric 8B10 Fab, VL D91A (Fab, V domains shown)
# VH: B14 VH with A32Y
# VL: B14 VL with D91A
# notes: as for B14
# B20: chimeric 8B10 Fab, VL E27A (Fab, V domains shown)
# VH: B14 VH with A32Y
# VL: B14 VL with E27A
# notes: as for B14
# B21: chimeric 8B10 Fab, VL E93A (Fab, V domains shown)
# VH: B14 VH with A32Y
# VL: B14 VL with E93A
# notes: as for B14
# B22: chimeric 8B10 Fab, VL H50A (Fab, V domains shown)
# VH: B14 VH with A32Y
# VL: B14 VL with H50A
# notes: as for B14
# B23: chimeric 8B10 Fab, VL N31A (Fab, V domains shown)
# VH: B14 VH with A32Y
# VL: B14 VL with N31A
# notes: as for B14
# B24: chimeric 8B10 Fab, VL N31T (Fab, V domains shown)
# VH: B14 VH with A32Y
# VL: B14 VL with N31T
# notes: as for B14
# B25: chimeric 8B10 Fab, VL N32A (Fab, V domains shown)
# VH: B14 VH with A32Y
# VL: B14 VL with N32A
# notes: as for B14
# B26: chimeric 8B10 Fab, VL S53A (Fab, V domains shown)
# VH: B14 VH with A32Y
# VL: B14 VL with S53A
# notes: Rat V domains with human CH1 and CL; E. coli periplasmic extract; also called S53A (light chain variable domain)
# B27: chimeric 8B10 Fab, VL S92A (Fab, V domains shown)
# VH: B14 VH with A32Y
# VL: B14 VL with S92A
# notes: as for B14
# B28: chimeric 8B10 Fab, VL Y30A (Fab, V domains shown)
# VH: B14 VH with A32Y
# VL: B14 VL with Y30A
# notes: as for B14
# B29: chimeric 8B10 Fab, VL Y49A (Fab, V domains shown)
# VH: B14 VH with A32Y
# VL: B14 VL with Y49A
# notes: as for B14
# B30: chimeric 8B10 Fab, VL Y94A (Fab, V domains shown)
# VH: B14 VH with A32Y
# VL: B14 VL with Y94A
# notes: as for B14
# B31: chimeric 8B10 Fab, VL N31del (Fab, V domains shown)
# VH: B14 VH with A32Y
# VL: DIQMTQSPASLSASLGETVSIECLASEDIYNLAWYQQKPGKSPQLLIYHASSLQDGVPSRFSGSGSGTQYSLKINSLESEDAATYFCLQDSEYPPTFGGGTKLELK
# notes: as for B14
# Target: T1, human IL-23R
# Test: BIAcore SPR, antibody immobilised
# Method: BIAcore® label-free interaction analysis system determinations are performed essentially as described at Example 4 of U.S. Patent Application Publication No. 2007/0048315, which is hereby incorporated by reference. Briefly, ligands (anti-IL-23R mAbs) are immobilized on a BIAcore® label-free interaction analysis system CM5 sensor chip using standard amine-coupling procedure. Kinetic constants for the various interactions are determined using BIAevaluation software 3.1. The Kd is determined using the calculated dissociation and association rate constants.
# Several sequence variants intended to increase the chemical stability of hu8B10-b were produced to evaluate their effects on binding affinity. Kd values are provided at Table 3. Binding to human IL-23R was determined using the BIAcore® label-free interaction analysis system (surface plasmon resonance), essentially as described in Example 4 (supra). Chimeric forms, designated as “chim,” refers to rat variable domains linked to human IgG1 heavy chain and human kappa light chain constant domains, e.g., as presented at SEQ ID NOs: 16 and 17, respectively, or as at SEQ ID NOs: 22 and 23, respectively. Sequences for heavy and light chain variable domains are provided at FIGS. 1 and 2, and in the Sequence Listing (as described at Table 4). Antibodies incorporate the sequence changes recited in the table (“Variant(s)”) for the respective heavy and light chains. Data arc presented as mean±standard deviation for multiple determinations, and without error estimates for single determinations.
Binder,Kd [nM],binding result
B1,0.154,–
B2,–,no binding
B3,5.38,–
B4,0.114,–
B5,0.168,–
B6,–,no binding
B7,0.444,–
B8,0.22,–
B9,0.382,–
B10,0.179,–
B11,0.187,–
B12,19.2,–
B13,0.18,–

# Target: T2, biotinylated huIL-23R-IgG
# Test: ECL binding assay, periplasmic Fab extracts, biotinylated huIL-23R-IgG; AUC vs parental 8B10 Fab
# Text: (§1) The N31T change was introduced as a result of affinity maturation experiments, as follows. An E. coli expression vector for expression into the periplasmic space was constructed encoding a chimeric Fab fragment of rat antibody 8B10 comprising rat variable domains, a human constant light chain domain (CL) and a human constant heavy chain domain CH1. Mutations were introduced using a QuikChange® site directed mutagenesis kit (Stratagene Inc., LaJolla, Calif., USA). Primers were designed to replace selected positions with either alanine, or by all 20 amino acids, using the NNK codon approach (N includes an equimolar mix of A/G/C/T and K includes only G/T). To reduce background, alanine mutants at each position were used as the template for the randomization step. Unpurified periplasmic extracts were then tested for human IL-23R binding activity using an electrochemiluminescence assay with biotinylated huIL-23R-IgG and goat anti-huFab-Ori-Tag for detection. The area under the curve was used to compare the binding activity of sequence variants to the original parental 8B10 Fab. Data were fitted using GraphPad Prism® 3.0 software (Graphpad Software inc., San Diego, Calif. USA).
row,Binder,Binding (% of w.t.)
1,B14,76.3 % of w.t.
2,B15,53 % of w.t.
3,B16,41.7 % of w.t.
4,B17,18.3 % of w.t.
5,B18,93.1 % of w.t.
6,B19,5.6 % of w.t.
7,B20,96.2 % of w.t.
8,B21,62.8 % of w.t.
9,B22,62.2 % of w.t.
10,B23,117 % of w.t.
11,B24,129 % of w.t.
12,B25,13.4 % of w.t.
13,B26,85 % of w.t.
14,B27,68.4 % of w.t.
15,B28,3.2 % of w.t.
16,B29,62.4 % of w.t.

# Target: T2, biotinylated huIL-23R-IgG
# Test: ECL binding assay, Binding (% of w.t.)
# Text: as §1
row,Binder,binding result
1,B30,no binding
2,B31,no binding
